Test results taken from US20170035877A1 (published 2017).

Molecular target: soluble four-domain CD4 (UniProt P01730 26-390)
Experiment: ITC

B1: 16055 SOSIP.663 trimer, negatively selected (flow-through of the GE136 column) (other)
chain 1: not shown
chain 2: AVGLGAVIFGFLGAAGSTMGAASITLTVQARQLLSGIVQQQSNLLKAPEAQQHLLQLTVWGIKQLQTRVLAIERYLKDQQLLGIWGCSGKLICCTAVPWNSSWSNKSHDEIWGNMTWMQWDREISNYTNTIYRLLEDSQNQQEQNEKDLLAL
B1 was tested, and the Kd was 6 nM.
